From PMC6908968 (Cell, 2019) come the findings set out here.

Experiment [1] has as its target EBOV GP ectodomain residues 1-636 (GPec) (Zaire ebolavirus, strain  …, UniProt Q05320).
For experiment [2], the target named is T1, thermolysin-cleaved EBOV GP on Jurkat-GP cells (cleaved GP) (Zaire ebolavirus, Makona (GP1 core …, strain)).
T1 chain 1: not shown
T1 chain 2: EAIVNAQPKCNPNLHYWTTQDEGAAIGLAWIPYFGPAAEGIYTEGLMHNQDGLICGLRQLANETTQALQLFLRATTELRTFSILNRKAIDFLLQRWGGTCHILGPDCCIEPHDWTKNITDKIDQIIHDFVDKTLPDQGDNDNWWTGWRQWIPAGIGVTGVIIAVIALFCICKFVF

B1: 5.6.c3027 (antibody, V domains shown)
VH: QVQLVESGGGVVQPGRSLRLSCAASGFSFNNYGMHWVRQAPGKGLEWVAHIYFDGNYKFYIDSVKGRFTISRDNAKYTLYLQMNSLRVEDTAVYYCARDVRDGDDIFSGYHYGMDVWGQGTTVTVSS
VL: DIQMTQSPSSVSASVGDRVSITCRASQGFTNWLAWYQQKPGKAPKLVIYAASSLQSGVPSRFSGSGSGTNFTLTISSLQPEDFATYYCQQANSFPLTFGGGTKVDVK
On to B1, for which the binding result in experiment [1] and in experiment [2] was “binds” in each case.

B2: 5.6.c3057 (antibody, V domains shown)
VH: QVQLVESGGGVVQSGRSLRLSCAASGFTLSSYGMHWVRQAPGKGLEWVATVSFDGNNEYYADSVKGRFTISRDKSKNTLYLQMNSLRPEDTAMYYCAKEPLPARGDFWSGHYSPPSYYYYGMDVWGQGTTVTVSS
VL: QTVVTQEPSFSVSPGGTVTLTCGLRSGSVSTNYYPSWYQQTPGQPPRTLIYNTNTRSFGVPDRFSGSILGNRAALTITGAQADDESDYYCLLYMDSGIWVFGGGTKLTVL
Take B2: the binding result in experiment [1] and in experiment [2] was “binds” throughout.

B3: 5.6.c3191 (antibody, V domains shown)
VH: QVQLAQSGAEVKKPGASVKVSCKSSGYNFTTHGFNWVRQVPGQGLEWMGWISAYNADTNYAQKFQGRLTLTTETSSNTAYMELRSLTSDDTAVYYCARGEEYSTLYFYGMDVWGQGTTVTVSS
VL: DIQMTQSPSSVSASVGDRVTITCRASQGISIWLAWYQQKPGKAPKLLIYGASTLQSGVPSRFSGSGSGADYTLTINSLQPEDFATYFCQQAHSFPYTFGQGTKLEIR
As for B3, the binding result in experiment [1] and in experiment [2] was “binds” in each case.

B4: 5.6.c3023 (antibody, V domains shown)
VH: QVQLVESGGGVVQPGRSLRLSCAASGFTFRTYGLHWVRQAPGKGLEWVAFISNDGSSKYNVDSVKGRFTISRDNPKNTLYLQMNSLRTEDTAVYYCAKDTISVAIYGHFDTWGQGTLVTVSS
VL: DVVMTQSPLSLPVTLGQPASISCRSSQSLVKSDGNTYLNWFQQRPGQSPRRLIYKVSTRDTGVPDRFSGSGSGTDFTLKISRVEAEDVAVYYCMQATHWPITFGGGTTVEIK
With B4, the binding result in experiment [1] and in experiment [2] was “binds” throughout.

B5: 5.6.c3206 (antibody, V domains shown)
VH: QVQLKESGPGLVKPSQTLSLTCSVSGGAISNGGYCYTWIRQRPGKGLESIGYMHYSGSPYYNPSLKSRVTIYVDTSKNQFSLKLSSVTAADTAVYYCARGLLWFGESPFYYFDYWGQGTLVTVSS
VL: QSVLTQPPSVSGAPGQRVTISCTGSSSNIGAGYDVHWYQQLPGTAPKLLIYGNSNRPSGVPDRFSGSKSGTSASLAITGLQAEDEADYYCQSCDSSLSVVFGGGTKLTVL
In the case of B5, the binding result in experiment [1] and in experiment [2] was “binds” throughout.

B6: 5.6.c3133 (antibody, V domains shown)
VH: QVQLVQSGAEVKKPGSSVKVSCKTSGGTLSTYPFSWVRQAPGQGLEWMGGIIPFFGTTNYAQKFQGRLTMTADKSTNTVYMELGSLRSEDTAVYYCAREHGDDIYYYFAMDVWGQGTTVTVSS
VL: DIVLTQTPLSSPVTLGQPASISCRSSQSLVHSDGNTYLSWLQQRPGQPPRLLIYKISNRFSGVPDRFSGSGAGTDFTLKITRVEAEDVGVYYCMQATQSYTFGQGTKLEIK
With B6, the binding result in experiment [1] and in experiment [2] was “binds” in each case.

B7: 5.6.c3168 (antibody, V domains shown)
VH: EVQLVESGGGLVQPGGSLRLSCAASGFTLSNYDMNWVRQAPGKRLEWVSYISSSGSTTYYVDSVKGRFTISRDNAKNSLYLQMNSLRAEDTAVYYCARGHNNWFLYFDSWGQGTLVTVSS
VL: EILMTQSPATLSVSPGERATLSCRASQSVSSNLAWYQQVPGQAPRLLISDASTRATGIPARFSGSGSGTEFTLTINSLQSEDFAVYYCQQYNDWPGTFGQGTKLEIK
As to B7, the binding result in experiment [1] and in experiment [2] was “binds” throughout.

B8: 5.6.c3108 (antibody, V domains shown)
VH: QVQLVESGGGVVQPGRSLRLSCAASGFTFSNSDMHWVRQAPGKGLEWVALIYFDGSSQYYVDSVKGRFTISRDNSKNTLYLQMNSLRVEDTAVYYCAREAAIVGAIFYDGMDVWGQGTTVTVSS
VL: EIVMTQSPATLSVSPGEGATLSCRASQNVGFNVAWYQQRPGQAPRLLIYGASTRATGVPARFSGSGSGTEFTLTISSLQSEDFAVYYCQQCNNWPPLTFGGGTKVEIK
Turning to B8, the binding result in experiment [1] and in experiment [2] was “binds” in each case.

B9: 5.6.c3054 (antibody, V domains shown)
VH: QVTLRESGPALVKPTQTLTLTCTFSGFSLSTSGMCVSWIRQPPGKALEWLALIDWNDGKYYTTSLKTRLTISKDTSKNQVVLTMTNMDPVDTATYYCARIFTSSDWFYDAFDLWGQGAMVTVSS
VL: QIVMTQSPATLSVSPGERATLSCRASQSVNNNLAWYQQKPGQAPRLLISGASTRATGIPARFSGSGFGTEFTLTISSLQSEDFAVYYCQQYNTWPPLTFGPGTRVDIK
Take B9: the binding result in experiment [1] and in experiment [2] was “binds” in each case.

B10: 5.6.c3166 (antibody, V domains shown)
VH: EVHLVESGGGLVQPGGSLRLSCAASGFSFNTHWMNWVRQAPGKGLEWVANIKQNGGEKYYVDSVKGRFTISRDNAKNTLFLQMNSLRGDDTAVYYCARGPPPAAPEDLFYNYTMDVWGQGTTVTVSS
VL: EIVMTQSPATLSVSPGERATLSCRASQSVINHLAWYQQKPGQTPRLLIYGASTRATGIPARFSGSGSGTEFTLTISSLQSEDFAVYFCQQYNTWPPFTFGGGTKVEIK
As to B10, the binding result in experiment [1] and in experiment [2] was “binds” throughout.

B11: 5.6.c3021 (antibody, V domains shown)
VH: QLHLQESGPGLVKPSETLSLTCTVSGGSINHDYYWGWIRQPPGKGLEWIGTIYYSGNSYYNPSLKSRVTISVDTSKNQFSLKLSSVTAADTAVYYCARSEEDSVFGVLKGLAFDIWGQGTMVTVSS
VL: QSVLTQPPSVSGAPGQRVTISCTGSSSNIGAGYDVHWYQQPPGRAPKLLIYGNSNRASGVPDRFSGSKSGTSASLAITGLQAEDEADYYCQSYDSSLSGSVFGGGTKLTVL
In the case of B11, the binding result in experiment [1] and in experiment [2] was “binds” in each case.

B12: 5.6.c3053 (antibody, V domains shown)
VH: QVQLVESGGGLVQPGRSLRLSCAASGFTFTNYGMQWVRQGPGKGLEWVALIWYDGYSKYYVDSVKGRFTISRDNSKNTLYLEMNSLRAEDTAVYYCARGNGYSSGWLDNWGQGTLVTVSS
VL: DIQMTQSPSTLSASVGDRVTITCRASQSIDNWLAWYQQKPGKAPKVLIYKASSLESGVPSRFSGSASGTEFTLTISSLQPDDFATYYCQHYNSYSGTFGQGTKVEIK
Turning to B12, the binding result in experiment [1] and in experiment [2] was “binds” throughout.

B13: 5.6.c3225 (antibody, V domains shown)
VH: EVQLVESGGGLVKPGGSLRLSCAASGFTFSSYTMNWVRQAPGKGLEWVSFISSTSRYIHYADSVKGRFTISRDNAKNSLFLQINSLRDEDTAVYFCARESVDDTSMLYYGLDVWGQGTTVTVSS
VL: DIQMTQSPSSLSASVGGRVTITCRASQSISSSLSWYQQKPGKAPKFLIYGASTLESGVPSRFSGSGSGTDFTLTISSLQPEDFATYFCQQSHSLPWTFGQGTKVEIK
Take B13: the binding result in experiment [1] and in experiment [2] was “binds” each time.

B14: 5.6.c3113 (antibody, V domains shown)
VH: EVQMVESGGGLAQPGGSLRLSCAASGFTFSSYEMSWVRQAPGKGLEWVSYISTSGNTIYYADSVKGRFTISRDNAKNSLYLQMNNLRAEDTAFYYCAANHGDNLFWYFDLWGRGTLVTVSS
VL: DIQLIQSPSFLSASVGDRVTITCRASQGISSYLAWYQQKLGKAPKLLMYAASTLQSGVPSRFSGSGSGTEFTLTISSLQPEDFATYYCQQLNGYPPTFGQGTKLEIK
With B14, the binding result in experiment [1] and in experiment [2] was “binds” in each case.

B15: 5.6.c3083 (antibody, V domains shown)
VH: QVQLVQSGVEVKKPGASVKLSCKASGYTFTTYGISWVRQAPGQGLEWMGWISAYDDNANYGQQFQGRVTMTTDTSTSTAYMELRSLRSDDTAVYFCARCGGEFIWGWLDPWGQGTLVTVSS
VL: QSALTQPASVSGSPGQSITISCTGTSSDIGGYNYVSWYQQHPGLAPKLMIYDVSYRPSGVSNRFSGSKSGNTASLTISGLQAEDEADYYCSSYTSSGTLVFGGGTKLTVL
Consider B15, for which the binding result in experiment [1] and in experiment [2] was “binds” each time.

B16: 5.6.c3197 (antibody, V domains shown)
VH: QVQVVESGGGVVQPGKSLRLSCAASGFTFSSYGMHWVRQAPGKGLEWVAFIAYDGSNEYYADSVKGRFTISRDNSKITLYLQMNSLRAEDTAMYYCAKEGAGHDALYYYGMDVWGQGTTVTVSS
VL: DIQMTQSPSSVSASVGDRVTITCRASQGISFWLAWYQQKPGKAPELLISAASSLQSGVPSRFSGSGSGTDFTLTISSLQPEDFATYYCLQAHSFPYTFGQGTKLEIK
Turning to B16, the binding result in experiment [1] and in experiment [2] was “binds” in each case.

B17: 5.6.c3067 (antibody, V domains shown)
VH: EVQLVESGGGLVQPGGSLRLSCAASGFTFSNYWMTWVRQAPGKGLEWVGNIKEDGSEKYYVDSVKGRFTISRDNAKNSLYLQLNNLRAEDTAVYYCAREPAGFVFEGGFDYWGQGTLVTVSS
VL: DIQMTQSPSSVSASVGDRVTILCRASQYITTWLAWYQQKPGRAPKLLISAASTLQSGVPSRFSGSGSGTDFTLTISSLQPEDFATYYCQQAHSLPWTFGQGTKVEIK
B17: the binding result in experiment [1] and in experiment [2] was “binds” in each case.

B18: 5.6.c3151 (antibody, V domains shown)
VH: EVQLVESGGGVVQPGGSLRLSCAASGFDFDDYPMNWVRQAPGKGLELVFLISGDGGSTYSADSVKGRFTISRDNSKNSLYLQMNSLRTEDTALYYCAKDAVDNSGLYYYGMDVWGQGTTVIVSS
VL: DIQMTQSPSSVSASVGDRVTINCRASQGISGWLAWYQQKPGKAPKLLIYAASSLQSGVPSRFSGSGSGTDFTLAISSLQPEDLATYYCQQTHSFPFTFGPGTKVGIK
For B18, the binding result in experiment [1] and in experiment [2] was “binds” each time.

B19: 5.6.c3221 (antibody, V domains shown)
VH: QEELVESGGGVVQPGRSLRLSCAASTFTFSIYAMHWVRQAPGKGLEWVAVISYDGSNRYYADSVKGRFTISRDNSKNTVYLQMNSLRAEDTAVYFCAKDLGSNGWYYFDSWGQGTLVTVSS
VL: EIVLTQSPGTLSLSPGERATLSCRASQSVSSRYLAWYQQKPGQAPRLLIYGVSSRATGVPDRFSGSGSGTDFTLTISRLEPEDFAVYYCQHYGSSPWRPFGQGTKLEIK
Turning to B19, the binding result in experiment [1] and in experiment [2] was “binds” throughout.
